Consider eleven molecules from patent publication US20210309739A1 (CISCIO BIOASSAYS, published 2021).

For assay [1], the target named is T1, empty G alphai1 protein (recombinant TST-Galphai1 protein, no nucleotide) (human, UniProt P63096 1-354).
T1 construct: Same polypeptide as m14 and m15; also called empty G protein alpha; empty form of the G protein alpha; not shown: N-terminal TwinStreptag (TST) (IBA) tag and TEV linker
Put plainly: TR-FRET (HTRF) saturation binding; VH-d2 titrated on TST-Galphai1, empty form; mean Kd.

In assay [2] the target is T2, recombinant TST-Galphai1 protein bound to GDP (human, UniProt P63096 1-354, Loaded non-covalently with GDP (10 uM). The N-terminal TwinStreptag and TEV linker are not in the letters.).
T2 construct: Same polypeptide as m14 and m16; here loaded with an excess of GDP (10 uM); Produced in Sf9 insect cells; also called Galphai1 protein loaded with GDP
T2 sequence (P63096 whole entry): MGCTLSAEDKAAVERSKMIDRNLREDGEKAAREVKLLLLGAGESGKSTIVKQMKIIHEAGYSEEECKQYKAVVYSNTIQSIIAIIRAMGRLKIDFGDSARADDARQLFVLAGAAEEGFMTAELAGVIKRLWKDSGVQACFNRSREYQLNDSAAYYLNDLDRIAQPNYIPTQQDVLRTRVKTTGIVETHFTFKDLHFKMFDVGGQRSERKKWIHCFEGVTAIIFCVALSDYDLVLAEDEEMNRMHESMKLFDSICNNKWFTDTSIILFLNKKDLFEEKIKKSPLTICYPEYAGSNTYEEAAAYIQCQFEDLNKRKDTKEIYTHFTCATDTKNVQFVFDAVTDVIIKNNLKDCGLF
Put plainly: TR-FRET (HTRF) saturation binding; VH-d2 titrated on 1 nM TST-Galphai1 with 10 uM GDP, anti-TST-Lumi4-Tb donor; mean Kd. How it is done:
(§1) The TR-FRET (HTRF) test made it possible to determine the affinity (Kd) of the various antibodies for the Galphai1 protein; FIG. 2 illustrates the principle of this test. A fixed concentration (1 nM) of the recombinant Galphai1 protein purified and tagged with TST (TST-Galphai1 protein) was placed in the presence of an excess of nucleotide (GDP or GTPgS) (10 μM), of a fixed concentration (0.5 nM) of anti-TST antibody labeled with the donor Lumi4®-Tb (anti-TST antibody-Lumi4®-Tb) and of increasing concentrations of VH-type single-domain antibodies labeled with the acceptor d2 (anti-Galphai VH antibody-d2). The total HTRF signal was then obtained.
(§2) The specific HTRF signal of the interaction between the antibody and the Galphai1 protein was then calculated by subtracting the nonspecific signal from the total signal. The data of the specific HTRF signal were then analyzed on GraphPad Prism7 software using a “one site specific binding” fit. The dissociation constant (Kd) of the antibody for the Galphai1 protein was then determined. The results which were obtained with the antibodies which bind to the G protein alpha bound to GTP gamma S and with the antibodies which bind to the G protein alpha bound to GDP are shown in Tables 1 and 2 below.
On the technique in general: In TR-FRET formats the signal depends on donor and acceptor labels being close together.

In assay [3] the target is T1, empty G alphai1 protein (recombinant …). Put plainly: TR-FRET (HTRF) saturation binding; VH-d2 titrated on TST-Galphai1, empty form; mean Kd. The source holds these as a separate data set.
For assay [4], the target named is T3, recombinant TST-Galphai1 protein bound to GTPgammaS (human, UniProt P63096 1-354, Loaded non-covalently with GTPgammaS (10 uM). The N-terminal TwinStreptag and TEV linker are not in the letters.).
T3 construct: Same polypeptide as m15 and m16; here loaded with an excess of GTPgS (10 uM); Produced in Sf9 insect cells; also called Galphai1 protein loaded with GTPgS
T3 sequence (P63096 whole entry): as above
The experiment in a line: TR-FRET (HTRF) saturation binding; VH-d2 titrated on 1 nM TST-Galphai1 with 10 uM GTPgS, anti-TST-Lumi4-Tb donor; mean Kd. The method, then: as §1, §2

Assay [5] addresses T3, recombinant TST-Galphai1 protein bound …. The experiment in a line: TR-FRET (HTRF) saturation binding; 6HIS-tagged VH-HcAb titrated on 1 nM TST-Galphai1 with 10 uM GTPgS, anti-TST-Lumi4-Tb donor and anti-6HIS-d2 acceptor; mean Kd. The method, then: (§3) FIG. 12 illustrates the principle of the TR-FRET (HTRF) assay which was carried out to determine the affinity (Kd) of the various VH-HcAbs for the Galphai1 protein. A fixed concentration (1 nM) of the recombinant Galphai1 protein purified and tagged with TST (TST-Galphai1 protein) is placed in the presence of an excess of nucleotide (GDP or GTPgS) (10 μM), of a fixed concentration (0.5 nM) of anti-TST antibody labeled with the donor Lumi4®-Tb (anti-Tag Ab-Donor), of a fixed concentration (50 nM) of anti-6HIS antibody labeled with the acceptor d2 (anti-6HIS-acceptor antibody, Cisbio Bioassays #61HISDLF), and of increasing concentrations of a VH-HcAb antibody tagged with 6HIS (6HIS-Fc-sdAb). The total HTRF signal was then obtained.
(§4) The specific HTRF signal of the interaction between the VH-HcAb and the Galphai1 protein was then calculated by subtracting the nonspecific signal from the total signal. The data of the specific HTRF signal were then analyzed on GraphPad Prism7 software using a “one site specific binding” fit. The dissociation constant (Kd) of the VH-HcAb for the Galphai1 protein was then determined.

Assay [6] deals with T2, recombinant TST-Galphai1 protein bound …. Put plainly: TR-FRET (HTRF) saturation binding; 6HIS-tagged VH-HcAb titrated on 1 nM TST-Galphai1 with 10 uM GDP, anti-TST-Lumi4-Tb donor and anti-6HIS-d2 acceptor; mean Kd. How it is done:
as §3, §4

Changes are numbered by the printed parent chain. Like-named read-outs stand apart in the source and are kept apart here.

T1 sequence (P63096 whole entry): as above

B1: VH A10 (VHH)
VHH: EVQLVESGGGLVQPGGSLRLSCAASGLTYSDYAMSWVRQAAGKGPEWVASISSRGITTDYAHSVKGRFTVSRDNTKNTLYLQMNSLEPEDTAVYYCTTVSYWRYEYWGQGTQVTVSS
modifications: labeled with the acceptor fluorescent probe d2 (site not stated)
notes: Made in E. coli; also called anti-Galphai VH antibody-d2
By Kd is commonly meant the equilibrium constant for the complex coming apart. Take B1: the Kd worked out at 0.001 µM in assay [1] and 0.015 µM in assay [2].

B2: VH F2 (VHH)
VHH: EVQLVESGGGLVQPGGSLRLSCAASGFTFSSYAMSWVRQAAGKGPEWVASISSRGITTDYAHSVKGRFTVSRDNTKNTLYLQMNSLKPEDTALYYCVKGWMPTGWGQGTQVTVSS
modifications: labeled with the acceptor fluorescent probe d2 (site not stated)
notes: as for B1
Take B2: the results for the Kd in assay [1] and in assay [2] were 0.001 µM and 0.014 µM, respectively.

B3: VH B11 (VHH)
VHH: EVQLVESGGGLVQPGGSLRLSCAASGFTFNDYWMYWVRQAPGKGLEWVSSINTGGSSTYYSDSVKGRFTTARDNAKNSLYLQLNSLRPEDTAVYYCAKEGPVGPPDYWGQGTQVTVSS
modifications: labeled with the acceptor fluorescent probe d2 (site not stated)
notes: as for B1
With B3, the Kd in assay [3] is 0.017 µM; in assay [4] it was 0.001 µM.

B4: HcAb-B11 (Fc fusion)
heavy (part 1 of 2): EVQLVESGGGLVQPGGSLRLSCAASGFTFNDYWMYWVRQAPGKGLEWVSSINTGGSSTYYSDSVKGRFTTARDNAKNSLYLQLNSLRPEDTAVYYCAKEGPVGPPDYWGQGTQVTVSSAAAEQKLISEEDLNGAAHHHHHHGS
heavy (part 2 of 2): HHHHHH
notes: also called VH-HcAb B11; 6HIS-Fc-sdAb; not shown: CH2 and CH3 domains of a human IgG1
In the case of B4, in assay [5], the dissociation constant Kd was found to be 0.001 µM.

B5: HcAb-G7 (Fc fusion)
heavy (part 1 of 2): QVQLQESGGGLVQPGGSLRLSCAASGFTFSWYGMSWVRQAPGKGPEWVASISSRGITTDYAHSVKGRFTVSRDNTKNTLYLQMNSLKPEDTGVYYCTRVLWYDSGAYSLNDFWGQGTQVTVSSAAAEQKLISEEDLNGAAHHHHHHGS
heavy (part 2 of 2): HHHHHH
notes: VH-type heavy-chain antibody: VH fused to CH2 and CH3 of human IgG1, then a 6-histidine tag; made in HEK293; Detected in the assay through an anti-6HIS antibody labeled with d2; also called VH-HcAb G7; 6HIS-Fc-sdAb; not shown: CH2 and CH3 domains of a human IgG1
B5: in assay [6], the Kd was 0.005 µM.

B6: VH F9 (VHH)
VHH: EVQLVESGGGLVQPGGSLRLSCAASGFTFDDYAMNWVRQAAGKGPEWVASISSRGITTDYAHSVKGRFTVSRDNTKNTLYLQMNSLKPDDAAVYYCATDPSTWYRGTAHWGQGTQVTVSS
modifications: labeled with the acceptor fluorescent probe d2 (site not stated)
notes: as for B1
With B6, in assay [4], the Kd worked out at 0.032 µM.

B7: VH G6 (VHH)
VHH: B6 VHH with G10D, D30S, D31T, A33R, A41P, P45L, S63P
modifications: labeled with the acceptor fluorescent probe d2 (site not stated)
notes: as for B1
For B7, the Kd in assay [4] worked out at 0.095 µM.

B8: HcAb-F9 (Fc fusion)
heavy (part 1 of 2): EVQLVESGGGLVQPGGSLRLSCAASGFTFDDYAMNWVRQAAGKGPEWVASISSRGITTDYAHSVKGRFTVSRDNTKNTLYLQMNSLKPDDAAVYYCATDPSTWYRGTAHWGQGTQVTVSSAAAEQKLISEEDLNGAAHHHHHHGS
heavy (part 2 of 2): HHHHHH
notes: also called VH-HcAb F9; 6HIS-Fc-sdAb; not shown: CH2 and CH3 domains of a human IgG1
As to B8, the Kd in assay [5] was found to be 0.003 µM.

B9: VH E2 (VHH)
VHH: EVQLVESGGGLVQPGGSLRLSCIGSGYTFSSYAMAWVRQASGKGPEWVASISSRGITTDYAHSVKGRFTISRDNAKNTLYLHMNNLKPEDTALYYCTRVLWYENGLYSLNDFWGQGTQVTVSS
modifications: labeled with the acceptor fluorescent probe d2 (site not stated)
notes: as for B1
For the molecule B9, the Kd in assay [1] was found to be 0.002 µM; in assay [2], 0.072 µM.

B10: VH F4 (VHH)
VHH: EVQLVESGGGLVQPGGSLRLSCAASGFTFSSYYMNWVRQAPGKGLEWVSSIYNGDGDTDYSDSVKGRFTISRDNAKNTVYLEMSDLKVQDTAIYYCNAYDGTLLRDYWGQGTQVTVSS
modifications: labeled with the acceptor fluorescent probe d2 (site not stated)
notes: as for B1
In the case of B10, the Kd in assay [3] is 0.083 µM; in assay [4], 0.031 µM.

B11: VH G7 (VHH)
VHH: QVQLQESGGGLVQPGGSLRLSCAASGFTFSWYGMSWVRQAPGKGPEWVASISSRGITTDYAHSVKGRFTVSRDNTKNTLYLQMNSLKPEDTGVYYCTRVLWYDSGAYSLNDFWGQGTQVTVSS
modifications: labeled with the acceptor fluorescent probe d2 (site not stated)
notes: as for B1
As to B11, the equilibrium dissociation constant (Kd) in assay [1] amounted to 0.005 µM; in assay [2] it was 0.031 µM.
